The chains are these.
B1: THAP1; numbered along this chain (parent)
chain: MVQSCSAYGCKNRYDKDKPVSFHKFPLTRPSLCKEWEAAVRRKNFKPTKYSSICSEHFTPDCFKRECNNKLLKENAVPTIFLCTEPHDKKEDLLEPQEQLPPPPLPPPVSQVDAAIGLLMPPLQTPVNLSVFCDHNYTVEDTMHQRKRIHQLEQQVEKLRKKLKTAQQRCRRQERQLEKLKEVVHFQKEKDDVSERGYVILPNDYFEIVEVPA

This data set covers variants of B1. Briefly: THAP1 transcriptional activity (GFP+/GFP- enrichment relative to wild-type constructs) (ratio to WT); higher = more THAP1 activity (PSMB5 reporter activation). To be noted: with PSMB5 promoter-GFP reporter. A digest of the protocol:
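Variants were counted by Illumina sequencing of genomic DNA amplicons from BFP+ cells sorted into GFP-bright and GFP-dim bins five days after lentiviral transduction, in duplicate at MOI ~0.3. The library changed each of residues 2–213 of human THAP1 to all 20 amino acids and was introduced into THAP1-knockout HEK-293T cells with mClover3 knocked in at endogenous PSMB5. Activity equals the replicate-mean bright/dim read fold change over the mean of wild-type synonymous constructs.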
Take MVQSCSAYGCKNRYDKDKPVSFHKFPLTRPSLCKEWEAAVRRKNFKPTKYSSICSEHFTPDCFKRECNNKLLKENAVPTIFLCTEPHDKREDLLEPQEQLPPPPLPPPVSQVDAAIGLLMPPLQTPVNLSVFCDHNYTVEDTMHQRKRIHQLEQQVEKLRKKLKTAQQRCRRQERQLEKLKEVVHFQKEKDDVSERGYVILPNDYFEIVEVPA [K90R]: the THAP1 transcriptional activity was found to be 0.598.

As for MFQSCSAYGCKNRYDKDKPVSFHKFPLTRPSLCKEWEAAVRRKNFKPTKYSSICSEHFTPDCFKRECNNKLLKENAVPTIFLCTEPHDKKEDLLEPQEQLPPPPLPPPVSQVDAAIGLLMPPLQTPVNLSVFCDHNYTVEDTMHQRKRIHQLEQQVEKLRKKLKTAQQRCRRQERQLEKLKEVVHFQKEKDDVSERGYVILPNDYFEIVEVPA [V2F], the THAP1 transcriptional activity turned out to be 0.161. With MVQSCSAYGCKNRYDKDKPVSFHKFPLTRPSLCKEWEAAVRRKNFKPTKYSSICSEHFTPDCFKRECNNKLLKENAVPTIFLCTEPHDKKEDLLEPQEQLPPPPLPPPVSQVDAAIGLLMPPLQTPVNLSVFCDHNYTVEDTMHQRKRIHQLEQQVEKLRKKLKTAQQRCRRQERQLEKLKEVVHFQKETDDVSERGYVILPNDYFEIVEVPA [K190T] the figure was 1.35. In the case of MVQSCSAYGCKHRYDKDKPVSFHKFPLTRPSLCKEWEAAVRRKNFKPTKYSSICSEHFTPDCFKRECNNKLLKENAVPTIFLCTEPHDKKEDLLEPQEQLPPPPLPPPVSQVDAAIGLLMPPLQTPVNLSVFCDHNYTVEDTMHQRKRIHQLEQQVEKLRKKLKTAQQRCRRQERQLEKLKEVVHFQKEKDDVSERGYVILPNDYFEIVEVPA [N12H] it was 0.108; in that of MVQSCSAYGCKNRYDKDKPVSFHKFPLTRPSLCKEWEAAVRRKNFKPTKYSSICSEHFTPDCFKRECNNKLLKENAVPTIFLCTEPHDKKEDLLEPQEQLPPPPLPPPVSQVDAAIGLLMPPLQTPVNLSVFCDHNYTVEDTMHQRKRIHQLEQQVEKLRKKLKTAQQRCRRQERQLEKLKWVVHFQKEKDDVSERGYVILPNDYFEIVEVPA [E182W], 0.66; in that of MVQSCSAYGCKNRYDKDKPVSFHKFPLTRPSLCKEWEAAVRRKNFKPTKYSSICSEHFTPDCFKRECNNKLLKENAVPTIFLCTEPHDKKEDLLEPQEQLPPPPLPPPVSQVDAAIGLLMPPLQTPVNLSVFCDHNYTVEDTMHQRKRIHQLEQQVEKLLKKLKTAQQRCRRQERQLEKLKEVVHFQKEKDDVSERGYVILPNDYFEIVEVPA [R160L], 0.205. With MVQSCSAYGCKNRYDKDKPVSFHKFPLTRPSLCKEWEAAVRRKNFKPTKYSSICSEHFTPDCFKRECNNKLLKENAVPTIFLCTEPHDKKEDLLEPQEQLPPPPLPPPVSQVDAAIGLLMPPLQTPVNLSVFCDHNYTVEDTMHQRKRIHQLEQQVEKLRKKLKTAQQRCRRQERQLEKLKEVVHFQKEKDDVSERGYVILPNDMFEIVEVPA [Y205M] the figure was 1.5; with MVQSCSAYGCKNRYDKDKPVMFHKFPLTRPSLCKEWEAAVRRKNFKPTKYSSICSEHFTPDCFKRECNNKLLKENAVPTIFLCTEPHDKKEDLLEPQEQLPPPPLPPPVSQVDAAIGLLMPPLQTPVNLSVFCDHNYTVEDTMHQRKRIHQLEQQVEKLRKKLKTAQQRCRRQERQLEKLKEVVHFQKEKDDVSERGYVILPNDYFEIVEVPA [S21M], 0.182. Turning to MVQSCSAYGCKNRYDKDKPVSFHKFPLTRPSLCKEWEAAVRRKNFKPTKYSSICSEYFTPDCFKRECNNKLLKENAVPTIFLCTEPHDKKEDLLEPQEQLPPPPLPPPVSQVDAAIGLLMPPLQTPVNLSVFCDHNYTVEDTMHQRKRIHQLEQQVEKLRKKLKTAQQRCRRQERQLEKLKEVVHFQKEKDDVSERGYVILPNDYFEIVEVPA [H57Y], the THAP1 transcriptional activity was found to be 0.115. With MVQSCSAYGCKNRYDKDKPVSFHKFPLTRPSLCKEWEAAVRRKNFKPTKYSSICSEHFTPDCFKRECNNKLLKENAVPTIFLCTEPHDKKEDLLEPQEQLPPPPLPPPVSQVDAAIGLLMPPLQTPVNLSVFCDHNYTVEDTMHQRKRIHQLEQQVEKLRKKLKTAQQRCRRQERQLEKLKEVVHFQPEKDDVSERGYVILPNDYFEIVEVPA [K188P] the figure was 0.419. With MVQSCSAYGCKNRYDKDKPVSFHKFPLTRPSLCKEWEAAVRRKNFKPTKYSSICSEHFTPDCFKRECNNKLLKENAVPTIFLCTEPHDKKEDLLEPQEQLPPPPLPPPVSQVDAAIGLLMPPLQTPVNLSVFCDHNYTVEDTMHQRKRIHQLEQQVEKLRKKLKTAQQRCRRQERQLEKLKEVVHFQVEKDDVSERGYVILPNDYFEIVEVPA [K188V] the figure was 0.826; with MVQSCSAYGCKNRYDKDKPVSFHKFPLTRPSLCKEWEAAVRRKNFKPTKYSSICSEHFTPDCFKRECNNKLLKENAVPTIFLCTEPHDKKEDLLEPQEQLPPPPLPPPVSQVDAAIGLLMPPLQTPVNLSVFCDHNYTVEDTMHQRKRIHQLEQQVEKLRKKLKTAQQRCRRQERQLEKLKEVVHFQKEKDDVSERGYVILPNDYHEIVEVPA [F206H], 1.05. With MVQSCSAYGCKNRYDKDKPVSFHKFPLTRPSLCKEWEAAVRRKNFKPTKYSSICSEHFTPDCFKRECNNKLLKENAVPTIFLCTEPHDKKEDLLEPQEQLPPPPLPPPVSQVDAAIGLLMPPLQTPVNLSVFCDHNYTVEDTMHQRKRIHQLEQQVEKHRKKLKTAQQRCRRQERQLEKLKEVVHFQKEKDDVSERGYVILPNDYFEIVEVPA [L159H] the figure was 0.228. Regarding MVQSCSAYGCKNRYDKDKPVSFHKFPLTRPSLCKEWEAAVRRKNFKPTKYSSICSEHFTPDCFNRECNNKLLKENAVPTIFLCTEPHDKKEDLLEPQEQLPPPPLPPPVSQVDAAIGLLMPPLQTPVNLSVFCDHNYTVEDTMHQRKRIHQLEQQVEKLRKKLKTAQQRCRRQERQLEKLKEVVHFQKEKDDVSERGYVILPNDYFEIVEVPA [K64N], the THAP1 transcriptional activity came to 0.237. In the case of MVQSCSAYGCKNRYDKDKPVSFHKFPLTRPSLCKEWEAAVRRKNFKPTKYSSICSEHFTPDCFKRECNNKLLKENAVPTIFLCTEPHDKKEDLLEPQEQLPPPPLPPPVSQVDAAIGLLMPFLQTPVNLSVFCDHNYTVEDTMHQRKRIHQLEQQVEKLRKKLKTAQQRCRRQERQLEKLKEVVHFQKEKDDVSERGYVILPNDYFEIVEVPA [P122F] it was 0.156. For the variant MVQSCSAYGCKNRYDKDKPVSFHKFPLTRPSLCKEWEAAVRRKNFKPTKYSSICSEHFTPDCFKRECNNKLLKENAVPTIFLCTEPHDKKEDLLEPQEQLPPPPLPPPVSQVDAAIGLLMPYLQTPVNLSVFCDHNYTVEDTMHQRKRIHQLEQQVEKLRKKLKTAQQRCRRQERQLEKLKEVVHFQKEKDDVSERGYVILPNDYFEIVEVPA [P122Y], the THAP1 transcriptional activity was determined as 0.254. With MVQSCSAYGCKNRYDKDKPVSFHKFPLTRPSLCKEWEAAVRRKNFKPTKYSSICSEHFTPDCFKRECNNKLLKENAVPTIFLCTEPHDKKEDLLEPQEQLPPPPLPPPVSQVDAAIGLLMPPLQTPVNLSVFCDHNYTVEDTMHQRKRIHQLEQQVEKLRKKLKTAQQRCRRQERQLEKLKEVVHFQKEKDDVSERGYVILPNDYFEIWEVPA [V209W] the figure was 0.757; with MVQSCSAYGCKNRYDKDKPVSFHKFPLTRPSLCKEWEAAVRRKNFKPTKYSSICSEHFTPDCFKRECNNKLLKENAVPTIFLCTEPHDKKEDLLEPQEQLPPPPLPPPVSQVDAAIGLLMPPLQTPVNLSVFCDHNYTVEDTMHQRKREHQLEQQVEKLRKKLKTAQQRCRRQERQLEKLKEVVHFQKEKDDVSERGYVILPNDYFEIVEVPA [I149E], 0.225; with MVQSCSAYGCKNRYDKDKPVSFHKFPLTRPSLCKEWEAAVRRKNFKPTKYSSICSEHFTPDCFKRECNNKLLKENAVPTIFLCTEPHDKKEDLLEPQEQLPPPPLPPPVSQVDAAIGLLMPPLQTPVNLSVFCDHNYTVEDTMHQRKRIHQLEQQVEKLRKKLKTAQQRCRRQERQLEKLKEVVHRQKEKDDVSERGYVILPNDYFEIVEVPA [F186R], 1.31. With MVQSCSAYGCKNRYDKDKPVSFHKFPLTRPSLCKEWEAAVRRKNFKPTKYSSICSEHFTPDCFKRECNNKLLKENAVPTIFLCTEPHDKKEDLLEPQEQLPPPPLPPPVSQVDAAIGLLMPPLQTPVNLSVFCDHNYTVEDTMHQRKRIHQLEQQVEKLRKKLKTAQQRCRRQERQLEKLKEVVHFQKEKDDVSERGYVILPNDYFEIVEYPA [V211Y] the figure was 0.843; with MVQSCSAYGCKNRYDKDKPVSFHKFPLTRPSLCKEWEAAVRRKNFKPTKYSSICSEHFTPDCFKRECNNKLLKENAVPTIFLCTEPHDKKEDLLEPQEQLPPPPLPPPVSQVDAAIGLLMPPLQTPVNLSVFCDHNYTVEDTMHQRKRIHQLEQQVEKLRKKLKTAQQRCRRQERQLEKLKEVVHFQKEKDDVSERGYVILPNDYFEIVELPA [V211L], 1.38; with MVQSCSAYGCKNRYDKDKPVSFHKFPLTRPSLCKEWEAAVRRKNFKPTKYSSICSEHFTPDCFKRECNNKLLKENAVPTIFLCTEPHDKKEDLLEPQEQLPPPPLPPPVSQVDAAIGLLWPPLQTPVNLSVFCDHNYTVEDTMHQRKRIHQLEQQVEKLRKKLKTAQQRCRRQERQLEKLKEVVHFQKEKDDVSERGYVILPNDYFEIVEVPA [M120W], 0.324. Regarding MVQSCSAYGCKNRYDKDKPVSFHKFPLTRPSLCVEWEAAVRRKNFKPTKYSSICSEHFTPDCFKRECNNKLLKENAVPTIFLCTEPHDKKEDLLEPQEQLPPPPLPPPVSQVDAAIGLLMPPLQTPVNLSVFCDHNYTVEDTMHQRKRIHQLEQQVEKLRKKLKTAQQRCRRQERQLEKLKEVVHFQKEKDDVSERGYVILPNDYFEIVEVPA [K34V], the THAP1 transcriptional activity stood at 0.529. On to MVQSCSAYGCKNRYDKDKPVSFHKFPLTRPSLCKEWEAAVRRKNFKPTKYSSICSEHFTPDCFKRECNNKLLKENAVPTIFLCTEPHDKKEDLLEPQEQLPPPPLPPPVSQVDAAIGLLMPPLQTPVNLSVFCDHNYTVEDTMHQRKRIHQLEQQVEKLRKKLKTAQQRCRRQERPLEKLKEVVHFQKEKDDVSERGYVILPNDYFEIVEVPA [Q176P], for which the THAP1 transcriptional activity was found to be 0.259. In the case of MVQSCSAYGCKNRYDKDKPVSFHKFPLTRPSLCKEWEAAVRRKNFKPTKYSSICSEHFTPDCFKRECNNKLLKENAVPTIFLCTEPHDKKEDLLEPQEQLPPPPLPPPVSQVDAAIGLLMPPLQTPVNLSVFCDHNYTVEFTMHQRKRIHQLEQQVEKLRKKLKTAQQRCRRQERQLEKLKEVVHFQKEKDDVSERGYVILPNDYFEIVEVPA [D141F] it was 0.552; in that of MVQSCSAYGCKNRYDKDKPVSFHKFPLTRPSLCKEWEAAVRRKNFKPTKYSSICSEHFTPDCFKRECNNKLLKENAVPTIFLCTEPHDKKEDLLEPQEQLPPPPIPPPVSQVDAAIGLLMPPLQTPVNLSVFCDHNYTVEDTMHQRKRIHQLEQQVEKLRKKLKTAQQRCRRQERQLEKLKEVVHFQKEKDDVSERGYVILPNDYFEIVEVPA [L105I], 2.11; in that of MVQSCSAYGCKNRYDKDKPVSFHKFPLTRPSLHKEWEAAVRRKNFKPTKYSSICSEHFTPDCFKRECNNKLLKENAVPTIFLCTEPHDKKEDLLEPQEQLPPPPLPPPVSQVDAAIGLLMPPLQTPVNLSVFCDHNYTVEDTMHQRKRIHQLEQQVEKLRKKLKTAQQRCRRQERQLEKLKEVVHFQKEKDDVSERGYVILPNDYFEIVEVPA [C33H], 0.173. In the case of MVQSCSAYGCKNRYDKDKPVSFHKFPLTRPSLCKEWEAAVRRKNFKPTKYSSICSEHFTPDCFKRECNNKLLKENAVPTIFLCTEPHDKKEDLLEPQEQLPPPPLPPPVSQVDAAIGLLMPPLQTPVNLSVFCDHNYTVEDTMHQRKRIHQLEQQVEKLRKKLKTAQQRCRRQERQLEKLKEVVHFQKEKDDVSERGYVILPNDYFECVEVPA [I208C] it was 1.06.

These data come from the supplement of paper PMC11811203.
